# In patent publication US20190284293A1 (Bristol-Myers Squibb, published 2019):
# T1: N-hCD73-his (N-terminal domain of human CD73, residues 26-336, His tag) (human, UniProt P21589 26-336)
# T1 sequence: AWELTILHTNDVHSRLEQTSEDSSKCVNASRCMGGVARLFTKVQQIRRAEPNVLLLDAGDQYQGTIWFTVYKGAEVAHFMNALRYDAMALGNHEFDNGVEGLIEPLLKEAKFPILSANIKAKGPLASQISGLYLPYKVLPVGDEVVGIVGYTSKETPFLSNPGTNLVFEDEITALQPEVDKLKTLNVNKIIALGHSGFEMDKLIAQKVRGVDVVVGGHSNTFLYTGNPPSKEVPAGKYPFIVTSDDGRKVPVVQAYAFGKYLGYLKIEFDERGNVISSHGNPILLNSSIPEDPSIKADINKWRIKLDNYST
# T2: human CD73 on cells (human, UniProt P21589 27-549)
# T2 sequence: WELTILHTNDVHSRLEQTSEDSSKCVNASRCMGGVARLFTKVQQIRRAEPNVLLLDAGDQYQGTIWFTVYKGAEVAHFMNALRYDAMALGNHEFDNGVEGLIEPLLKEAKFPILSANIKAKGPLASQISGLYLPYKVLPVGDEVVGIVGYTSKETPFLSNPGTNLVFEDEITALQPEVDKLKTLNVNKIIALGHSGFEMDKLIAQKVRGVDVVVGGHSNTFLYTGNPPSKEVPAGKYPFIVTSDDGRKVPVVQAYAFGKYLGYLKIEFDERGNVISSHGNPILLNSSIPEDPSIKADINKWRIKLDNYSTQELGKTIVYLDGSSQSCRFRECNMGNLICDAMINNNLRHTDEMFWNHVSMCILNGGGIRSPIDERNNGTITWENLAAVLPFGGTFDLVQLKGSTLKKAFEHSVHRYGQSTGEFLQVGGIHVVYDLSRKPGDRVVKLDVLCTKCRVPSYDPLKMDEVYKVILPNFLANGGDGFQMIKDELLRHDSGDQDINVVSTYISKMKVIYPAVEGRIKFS
# Biological target: T1, N-hCD73-his (N-terminal domain of human …)
# Experiment: SPR, mAb captured on protein A
# Procedure: For these experiments, protein A (Pierce) was immobilized to a density of 3000-4000 RU on flow cells 1-4 of a CM5 sensor chip (GE Healthcare) using standard ethyl(dimethylaminopropyl) carbodiimide (EDC)/N-hydroxysuccinimide […] chemistry, with ethanolamine blocking, in a running buffer of 0.01 M HEPES pH 7.4, 0.15 M NaCl, 3 mM EDTA, 0.005% v/v tween 20. […] The running buffer for the kinetic experiments was 10 mM sodium phosphate, 130 mM sodium chloride, 0.05% tween 20, pH 7.1. The surfaces were regenerated after each cycle using two 30 s pulses of 10 mM glycine pH 1.5 at a flow rate of 30 μl/min. Sensogram data was double-referenced and then fitted to a 1:1 Langmuir model using Biacore T100 evaluation software v2.0.4, to determine the association rate constant (ka), the dissociation rate constant (kd), and the equilibrium dissociation constant (KD).
Kd,koff,kon,Binder
720 pM,0.00022 s⁻¹,300000 M⁻¹ s⁻¹,"CD73.6-IgG2-C219S-IgG1.1f (antibody, also called CD73.6-IgG2CS IgG1.1f; mAb-CD73.6-Vh-hHC-IgG2-C219S-IgG1.1f) heavy: QVQLVESGGGVVQPGRSLRLSCAASGFTFSNYGMHWVRQAPGKGLEWVAVILYDSSNKYYPDSVKGRFTISRDNSKNTLYLQMNSLRAEDTAVYYCARGGSSWYPDSFDIWGQGTMVTVSSASTKGPSVFPLAPCSRSTSESTAALGCLVKDYFPEPVTVSWNSGALTSGVHTFPAVLQSSGLYSLSSVVTVPSSNFGTQTYTCNVDHKPSNTKVDKTVERKSCVECPPCPAPPVAGPSVFLFPPKPKDTLMISRTPEVTCVVVDVSHEDPEVKFNWYVDGVEVHNAKTKPREEQYNSTYRVVSVLTVLHQDWLNGKEYKCKVSNKALPSSIEKTISKAKGQPREPQVYTLPPSREEMTKNQVSLTCLVKGFYPSDIAVEWESNGQPENNYKTTPPVLDSDGSFFLYSKLTVDKSRWQQGNVFSCSVMHEALHNHYTQKSLSLSPGK light: not shown"

# Biological target: T2, human CD73 on cells
# Experiment: cell-based or functional assay
CD73 Inhibition S:B (inhibition versus background),"CD73 Inhibition EC50 (nM), cAMP assay, Calu6",Binder
33,–,CD73.4-IgG2.3-plusTHT (antibody) heavy: QVQLVESGGGVVQPGRSLRLSCAASGFTFSNYGMHWVRQAPGKGLEWVAVILYDGSNKYYPDSVKGRFTISRDNSKNTLYLQMNSLRAEDTAVYYCARGGSSWYPDSFDIWGQGTMVTVSSASTKGPSVFPLAPCSRSTSESTAALGCLVKDYFPEPVTVSWNSGALTSGVHTFPAVLQSSGLYSLSSVVTVPSSNFGTQTYTCNVDHKPSNTKVDKTVERKSCVETHTCPPCPAPPVAGPSVFLFPPKPKDTLMISRTPEVTCVVVDVSHEDPEVQFNWYVDGVEVHNAKTKPREEQFNSTFRVVSVLTVVHQDWLNGKEYKCKVSNKGLPAPIEKTISKTKGQPREPQVYTLPPSREEMTKNQVSLTCLVKGFYPSDIAVEWESNGQPENNYKTTPPMLDSDGSFFLYSKLTVDKSRWQQGNVFSCSVMHEALHNHYTQKSLSLSPGK light: not shown
44,0.9 nM,CD73.4-IgG2.5-plusTHT (antibody) heavy: QVQLVESGGGVVQPGRSLRLSCAASGFTFSNYGMHWVRQAPGKGLEWVAVILYDGSNKYYPDSVKGRFTISRDNSKNTLYLQMNSLRAEDTAVYYCARGGSSWYPDSFDIWGQGTMVTVSSASTKGPSVFPLAPSSRSTSESTAALGCLVKDYFPEPVTVSWNSGALTSGVHTFPAVLQSSGLYSLSSVVTVPSSNFGTQTYTCNVDHKPSNTKVDKTVERKCCVETHTCPPCPAPPVAGPSVFLFPPKPKDTLMISRTPEVTCVVVDVSHEDPEVQFNWYVDGVEVHNAKTKPREEQFNSTFRVVSVLTVVHQDWLNGKEYKCKVSNKGLPAPIEKTISKTKGQPREPQVYTLPPSREEMTKNQVSLTCLVKGFYPSDIAVEWESNGQPENNYKTTPPMLDSDGSFFLYSKLTVDKSRWQQGNVFSCSVMHEALHNHYTQKSLSLSPGK light: not shown
–,1.26 nM,CD73.4-IgG2.3-plusGGG (antibody) heavy: QVQLVESGGGVVQPGRSLRLSCAASGFTFSNYGMHWVRQAPGKGLEWVAVILYDGSNKYYPDSVKGRFTISRDNSKNTLYLQMNSLRAEDTAVYYCARGGSSWYPDSFDIWGQGTMVTVSSASTKGPSVFPLAPCSRSTSESTAALGCLVKDYFPEPVTVSWNSGALTSGVHTFPAVLQSSGLYSLSSVVTVPSSNFGTQTYTCNVDHKPSNTKVDKTVERKSCVEGGGCPPCPAPPVAGPSVFLFPPKPKDTLMISRTPEVTCVVVDVSHEDPEVQFNWYVDGVEVHNAKTKPREEQFNSTFRVVSVLTVVHQDWLNGKEYKCKVSNKGLPAPIEKTISKTKGQPREPQVYTLPPSREEMTKNQVSLTCLVKGFYPSDIAVEWESNGQPENNYKTTPPMLDSDGSFFLYSKLTVDKSRWQQGNVFSCSVMHEALHNHYTQKSLSLSPGK light: not shown
42,0.44 nM,CD73.4-IgG2.5G1-KH (antibody) heavy: QVQLVESGGGVVQPGRSLRLSCAASGFTFSNYGMHWVRQAPGKGLEWVAVILYDGSNKYYPDSVKGRFTISRDNSKNTLYLQMNSLRAEDTAVYYCARGGSSWYPDSFDIWGQGTMVTVSSASTKGPSVFPLAPSSRSTSESTAALGCLVKDYFPEPVTVSWNSGALTSGVHTFPAVLQSSGLYSLSSVVTVPSSNFGTQTYTCNVDHKPSNTKVDKTVERKCCVECPPCPAPPVAGPSVFLFPPKPKDTLMISRTPEVTCVVVDVSHEDPEVKFNWYVDGVEVHNAKTKPREEQYNSTYRVVSVLTVLHQDWLNGKEYKCKVSNKALPAPIEKTISKAKGQPREPQVYTLPPSREEMTKNQVSLTCLVKGFYPSDIAVEWESNGQPENNYKTTPPVLDSDGSFFLYSKLTVDKSRWQQGNVFSCSVMHEALHNHYTQKSLSLSPGK light: not shown
45,0.87 nM,CD73.4-IgG2.5G1.1f-KH (antibody) heavy: QVQLVESGGGVVQPGRSLRLSCAASGFTFSNYGMHWVRQAPGKGLEWVAVILYDGSNKYYPDSVKGRFTISRDNSKNTLYLQMNSLRAEDTAVYYCARGGSSWYPDSFDIWGQGTMVTVSSASTKGPSVFPLAPSSRSTSESTAALGCLVKDYFPEPVTVSWNSGALTSGVHTFPAVLQSSGLYSLSSVVTVPSSNFGTQTYTCNVDHKPSNTKVDKTVERKCCVECPPCPAPPVAGPSVFLFPPKPKDTLMISRTPEVTCVVVDVSHEDPEVKFNWYVDGVEVHNAKTKPREEQYNSTYRVVSVLTVLHQDWLNGKEYKCKVSNKALPSSIEKTISKAKGQPREPQVYTLPPSREEMTKNQVSLTCLVKGFYPSDIAVEWESNGQPENNYKTTPPVLDSDGSFFLYSKLTVDKSRWQQGNVFSCSVMHEALHNHYTQKSLSLSPGK light: not shown
52,1.7 nM,CD73.4-IgG2.3G1-KH (antibody) heavy: QVQLVESGGGVVQPGRSLRLSCAASGFTFSNYGMHWVRQAPGKGLEWVAVILYDGSNKYYPDSVKGRFTISRDNSKNTLYLQMNSLRAEDTAVYYCARGGSSWYPDSFDIWGQGTMVTVSSASTKGPSVFPLAPCSRSTSESTAALGCLVKDYFPEPVTVSWNSGALTSGVHTFPAVLQSSGLYSLSSVVTVPSSNFGTQTYTCNVDHKPSNTKVDKTVERKSCVECPPCPAPPVAGPSVFLFPPKPKDTLMISRTPEVTCVVVDVSHEDPEVKFNWYVDGVEVHNAKTKPREEQYNSTYRVVSVLTVLHQDWLNGKEYKCKVSNKALPAPIEKTISKAKGQPREPQVYTLPPSREEMTKNQVSLTCLVKGFYPSDIAVEWESNGQPENNYKTTPPVLDSDGSFFLYSKLTVDKSRWQQGNVFSCSVMHEALHNHYTQKSLSLSPGK light: not shown
51,2.17 nM,CD73.4-IgG2.5 (antibody) heavy: QVQLVESGGGVVQPGRSLRLSCAASGFTFSNYGMHWVRQAPGKGLEWVAVILYDGSNKYYPDSVKGRFTISRDNSKNTLYLQMNSLRAEDTAVYYCARGGSSWYPDSFDIWGQGTMVTVSSASTKGPSVFPLAPSSRSTSESTAALGCLVKDYFPEPVTVSWNSGALTSGVHTFPAVLQSSGLYSLSSVVTVPSSNFGTQTYTCNVDHKPSNTKVDKTVERKCCVECPPCPAPPVAGPSVFLFPPKPKDTLMISRTPEVTCVVVDVSHEDPEVQFNWYVDGVEVHNAKTKPREEQFNSTFRVVSVLTVVHQDWLNGKEYKCKVSNKGLPAPIEKTISKTKGQPREPQVYTLPPSREEMTKNQVSLTCLVKGFYPSDIAVEWESNGQPENNYKTTPPMLDSDGSFFLYSKLTVDKSRWQQGNVFSCSVMHEALHNHYTQKSLSLSPGK light: not shown
